Data from IntAct's records for PubMed 29892012.

B1: Syntaxin-3 (Homo sapiens), Q13277 (parent)
chain: MKDRLEQLKAKQLTQDDDTDAVEIAIDNTAFMDEFFSEIEETRLNIDKISEHVEEAKKLYSIILSAPIPEPKTKDDLEQLTTEIKKRANNVRNKLKSMEKHIEEDEVRSSADLRIRKSQHSVLSRKFVEVMTKYNEAQVDFRERSKGRIQRQLEITGKKTTDEELEEMLESGNPAIFTSGIIDSQISKQALSEIEGRHKDIVRLESSIKELHDMFMDIAMLVENQGEMLDNIELNVMHTVDHVEKARDETKKAVKYQSQARKKLIIIIVLVVVLLGILALIIGLSVGLN
B2: Ena/VASP-like protein (Homo sapiens), Q9UI08 (parent)
chain: MSEQSICQARASVMVYDDTSKKWVPIKPGQQGFSRINIYHNTASNTFRVVGVKLQDQQVVINYSIVKGLKYNQATPTFHQWRDARQVYGLNFASKEEATTFSNAMLFALNIMNSQEGGPSSQRQVQNGPSPDEMDIQRRQVMEQHQQQRQESLERRTSATGPILPPGHPSSAASAPVSCSGPPPPPPPPVPPPPTGATPPPPPPLPAGGAQGSSHDESSMSGLAAAIAGAKLRRVQRPEDASGGSSPSGTSKSDANRASSGGGGGGLMEEMNKLLAKRRKAASQSDKPAEKKEDESQMEDPSTSPSPGTRAASQPPNSSEAGRKPWERSNSVEKPVSSILSRTPSVAKSPEAKSPLQSQPHSRMKPAGSVNDMALDAFDLDRMKQEILEEVVRELHKVKEEIIDAIRQELSGISTT
partner: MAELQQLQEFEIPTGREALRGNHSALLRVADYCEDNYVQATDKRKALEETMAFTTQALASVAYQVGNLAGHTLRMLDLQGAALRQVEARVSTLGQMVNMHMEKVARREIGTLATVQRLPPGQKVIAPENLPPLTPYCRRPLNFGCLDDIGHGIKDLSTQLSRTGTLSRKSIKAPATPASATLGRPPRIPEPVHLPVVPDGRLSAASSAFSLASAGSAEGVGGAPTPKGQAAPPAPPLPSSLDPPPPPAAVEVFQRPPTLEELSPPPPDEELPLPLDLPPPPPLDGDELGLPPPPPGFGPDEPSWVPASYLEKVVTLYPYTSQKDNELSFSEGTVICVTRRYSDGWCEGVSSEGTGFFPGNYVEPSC
B3: Myotubularin-related protein 9 (Homo sapiens), Q96QG7 (parent)
chain: MEFAELIKTPRVDNVVLHRPFYPAVEGTLCLTGHHLILSSRQDNTEELWLLHSNIDAIDKRFVGSLGTIIIKCKDFRIIQLDIPGMEECLNIASSIEALSTLDSITLMYPFFYRPMFEVIEDGWHSFLPEQEFELYSSATSEWRLSYVNKEFAVCPSYPPIVTVPKSIDDEALRKVATFRHGGRFPVLSYYHKKNGMVIMRSGQPLTGTNGRRCKEDEKLINATLRAGKRGYIIDTRSLNVAQQTRAKGGGFEQEAHYPQWRRIHKSIERYHILQESLIKLVEACNDQTHNMDRWLSKLEASNWLTHIKEILTTACLAAQCIDREGASILIHGTEGTDSTLQVTSLAQIILEPRSRTIRGFEALIEREWLQAGHPFQQRCAQSAYCNTKQKWEAPVFLLFLDCVWQILRQFPCSFEFNENFLIMLFEHAYASQFGTFLGNNESERCKLKLQQKTMSLWSWVNQPSELSKFTNPLFEANNLVIWPSVAPQSLPLWEGIFLRWNRSSKYLDEAYEEMVNIIEYNKELQAKVNILRRQLAELETEDGMQESP
partner: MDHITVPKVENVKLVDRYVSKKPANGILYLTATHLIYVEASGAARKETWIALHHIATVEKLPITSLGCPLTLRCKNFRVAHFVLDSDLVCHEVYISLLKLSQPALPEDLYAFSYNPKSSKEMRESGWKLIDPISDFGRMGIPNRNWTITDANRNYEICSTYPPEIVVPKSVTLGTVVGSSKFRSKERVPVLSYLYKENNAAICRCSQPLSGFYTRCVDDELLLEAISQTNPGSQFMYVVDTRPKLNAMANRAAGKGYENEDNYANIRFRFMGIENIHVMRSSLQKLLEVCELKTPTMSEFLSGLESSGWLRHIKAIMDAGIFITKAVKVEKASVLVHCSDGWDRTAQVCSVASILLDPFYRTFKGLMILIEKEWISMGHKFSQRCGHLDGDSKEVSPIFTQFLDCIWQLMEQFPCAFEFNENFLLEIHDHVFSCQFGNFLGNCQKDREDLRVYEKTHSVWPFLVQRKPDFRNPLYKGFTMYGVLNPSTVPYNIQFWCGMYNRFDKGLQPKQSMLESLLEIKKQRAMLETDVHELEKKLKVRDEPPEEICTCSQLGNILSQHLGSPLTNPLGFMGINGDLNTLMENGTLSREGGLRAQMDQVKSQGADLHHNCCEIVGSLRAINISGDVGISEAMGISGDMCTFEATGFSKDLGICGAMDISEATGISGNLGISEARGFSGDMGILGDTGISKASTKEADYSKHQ
B4: Ribosome assembly protein METTL17, mitochondrial (Homo sapiens), Q9H7H0 (parent)
chain: MAAALKCLLTLGRWCPGLGVAPQARALAALVPGVTQVDNKSGFLQKRPHRQHPGILKLPHVRLPQALANGAQLLLLGSAGPTMENQVQTLTSYLWSRHLPVEPEELQRRARHLEKKFLENPDLSQTEEKLRGAVLHALRKTTYHWQELSYTEGLSLVYMAARLDGGFAAVSRAFHEIRARNPAFQPQTLMDFGSGTGSVTWAAHSIWGQSLREYMCVDRSAAMLVLAEKLLKGGSESGEPYIPGVFFRQFLPVSPKVQFDVVVSAFSLSELPSKADRTEVVQTLWRKTGHFLVLVENGTKAGHSLLMDARDLVLKGKEKSPLDPRPGFVFAPCPHELPCPQLTNLACSFSQAYHPIPFSWNKKPKEEKFSMVILARGSPEEAHRWPRITQPVLKRPRHVHCHLCCPDGHMQHAVLTARRHGRDLYRCARVSSWGDLLPVLTPSAFPPSTAQDPSES
partner: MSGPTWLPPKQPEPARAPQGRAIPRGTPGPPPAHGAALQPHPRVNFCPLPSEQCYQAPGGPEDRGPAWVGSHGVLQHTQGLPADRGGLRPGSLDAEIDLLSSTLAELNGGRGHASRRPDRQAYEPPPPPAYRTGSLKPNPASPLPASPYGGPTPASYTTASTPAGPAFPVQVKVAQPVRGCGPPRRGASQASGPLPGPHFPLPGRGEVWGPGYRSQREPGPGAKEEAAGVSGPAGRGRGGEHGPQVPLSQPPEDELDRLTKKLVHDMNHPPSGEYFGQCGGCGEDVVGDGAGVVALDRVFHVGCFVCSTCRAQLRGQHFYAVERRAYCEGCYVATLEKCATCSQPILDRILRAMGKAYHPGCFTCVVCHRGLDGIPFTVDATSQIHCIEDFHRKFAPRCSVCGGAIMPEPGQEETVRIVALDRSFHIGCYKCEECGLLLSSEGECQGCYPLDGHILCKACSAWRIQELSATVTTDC
B5: Inositol polyphosphate 5-phosphatase K (Homo sapiens), Q9BT40 (parent)
chain: MSSRKLSGPKGRRLSIHVVTWNVASAAPPLDLSDLLQLNNRNLNLDIYVIGLQELNSGIISLLSDAAFNDSWSSFLMDVLSPLSFIKVSHVRMQGILLLVFAKYQHLPYIQILSTKSTPTGLFGYWGNKGGVNICLKLYGYYVSIINCHLPPHISNNYQRLEHFDRILEMQNCEGRDIPNILDHDLIIWFGDMNFRIEDFGLHFVRESIKNRCYGGLWEKDQLSIAKKHDPLLREFQEGRLLFPPTYKFDRNSNDYDTSEKKRKPAWTDRILWRLKRQPCAGPDTPIPPASHFSLSLRGYSSHMTYGISDHKPVSGTFDLELKPLVSAPLIVLMPEDLWTVENDMMVSYSSTSDFPSSPWDWIGLYKVGLRDVNDYVSYAWVGDSKVSCSDNLNQVYIDISNIPTTEDEFLLCYYSNSLRSVVGISRPFQIPPGSLREDPLGEAQPQI
partner: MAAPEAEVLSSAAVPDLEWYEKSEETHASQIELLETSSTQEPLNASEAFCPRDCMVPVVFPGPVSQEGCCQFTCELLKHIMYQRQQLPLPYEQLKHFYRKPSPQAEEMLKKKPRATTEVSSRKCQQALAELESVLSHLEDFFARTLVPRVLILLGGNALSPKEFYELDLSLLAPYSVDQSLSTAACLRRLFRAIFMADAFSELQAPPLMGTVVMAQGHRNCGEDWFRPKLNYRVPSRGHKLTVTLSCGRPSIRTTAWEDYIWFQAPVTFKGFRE
B6: TBC1 domain family member 22B (Homo sapiens), Q9NU19 (parent)
chain: MAAENSKQFWKRSAKLPGSIQPVYGAQHPPLDPRLTKNFIKERSKVNTVPLKNKKASSFHEFARNTSDAWDIGDDEEEDFSSPSFQTLNSKVALATAAQVLENHSKLRVKPERSQSTTSDVPANYKVIKSSSDAQLSRNSSDTCLRNPLHKQQSLPLRPIIPLVARISDQNASGAPPMTVREKTRLEKFRQLLSSQNTDLDELRKCSWPGVPREVRPITWRLLSGYLPANTERRKLTLQRKREEYFGFIEQYYDSRNEEHHQDTYRQIHIDIPRTNPLIPLFQQPLVQEIFERILFIWAIRHPASGYVQGINDLVTPFFVVFLSEYVEEDVENFDVTNLSQDMLRSIEADSFWCMSKLLDGIQDNYTFAQPGIQKKVKALEELVSRIDEQVHNHFRRYEVEYLQFAFRWMNNLLMRELPLRCTIRLWDTYQSEPEGFSHFHLYVCAAFLIKWRKEILDEEDFQGLLMLLQNLPTIHWGNEEIGLLLAEAYRLKYMFADAPNHYRR
partner: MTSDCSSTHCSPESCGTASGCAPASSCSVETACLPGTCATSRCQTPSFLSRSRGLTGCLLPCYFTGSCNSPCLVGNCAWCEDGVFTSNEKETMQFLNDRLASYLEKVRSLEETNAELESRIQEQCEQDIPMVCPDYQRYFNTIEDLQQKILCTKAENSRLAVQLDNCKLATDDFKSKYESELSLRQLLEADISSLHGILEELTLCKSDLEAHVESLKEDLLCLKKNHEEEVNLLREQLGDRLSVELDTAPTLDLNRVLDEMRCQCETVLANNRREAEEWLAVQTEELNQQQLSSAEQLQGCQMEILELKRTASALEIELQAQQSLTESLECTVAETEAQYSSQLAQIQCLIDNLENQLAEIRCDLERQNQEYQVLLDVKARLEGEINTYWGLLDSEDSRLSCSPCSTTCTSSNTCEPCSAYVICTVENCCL

Variants of: B1
Details: with stx4_human STX4, Q12846
stx4_human STX4, Q12846, sequence (Q12846 whole entry): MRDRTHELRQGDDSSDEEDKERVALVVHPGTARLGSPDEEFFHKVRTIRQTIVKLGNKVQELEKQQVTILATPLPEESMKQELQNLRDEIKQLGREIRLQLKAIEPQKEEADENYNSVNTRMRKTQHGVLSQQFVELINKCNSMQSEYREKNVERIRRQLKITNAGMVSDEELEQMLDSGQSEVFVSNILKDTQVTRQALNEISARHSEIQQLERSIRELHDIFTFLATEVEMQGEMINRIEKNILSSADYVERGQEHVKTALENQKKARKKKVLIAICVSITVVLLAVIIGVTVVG

Variant | effect of a mutation on the interaction
K199E | with no effect

Variants of: B2
Details: with abi3_human ABI3, Q9P2A4

Variant | effect of a mutation on the interaction
R10Q | with no effect

Variants of: B3
Details: with mtmr8_human MTMR8, Q96EF0

Variant | effect of a mutation on the interaction
R359S | with no effect

Variants of: B4
Details: with trip6_human TRIP6, Q15654

Variant | effect of a mutation on the interaction
R212H | with no effect

Variants of: B5
Details: with md2bp_human MAD2L1BP

Variant | effect of a mutation on the interaction
R437K | disrupting interaction strength

Variants of: B6
Details: with KRT40, Q6A162

Variant | effect of a mutation on the interaction
A349T | disrupting interaction strength
